Values of other authors, collected in PMC7226360.

Target: NEDD8 (Homo sapiens) (UniProt Q15843)
Sequence (Q15843 1-76): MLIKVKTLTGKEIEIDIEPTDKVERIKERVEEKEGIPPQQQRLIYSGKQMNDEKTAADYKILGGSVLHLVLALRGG

KHNYN 627-678, sequence (O15037 627-678): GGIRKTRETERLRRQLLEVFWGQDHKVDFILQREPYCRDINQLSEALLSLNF

## KHNYN 627-678 (from UniProt O15037)
  Kd: 24 µM
